# B1: TPR t1 (parent)
# chain: GACCAAUCUGCCCUCAGAGCUCGAGAACAUCUUCGGAUGCAGAGGAGGCAGGCUUCGGUGGCGCGAUAGCGCCAACGUCCUCAACCUCCAAUGCAUCCCACCACAUGAUGAUGCCUGAAGAGCCUUGGUUUUUUG
# Variants of: B1
# Assay: polymerase ribozyme fitness, log enrichment relative to wild type (log ratio); higher = more active; in vitro selection for triplet polymerase activity
# In short: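 Input and output libraries were sequenced on Illumina after a single in vitro selection round, run in triplicate on PCR-built, transcribed mutant libraries of each subunit of a heterodimeric triplet polymerase ribozyme. Selection annealed libraries to a biotinylated primer, the partner subunit and triplets, incubated them frozen at −7 °C, then gel-excised extended constructs for streptavidin-bead capture and RT-PCR. Genotypes with ≥10 input reads and ≥1 read per output were kept. Fitness is the logarithm, taken in base 2, of genotype enrichment divided by wild-type enrichment, using inverse-variance-weighted replicate averages.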
row,Variant,polymerase ribozyme fitness (log ratio)
1,GACCAAUCUGCCCUCAGAGCUCGAGAACAUCUUCGGAUGCAGAGGAGGCAGGUUUCGGUGGCGCGAUAGCGCCAACGUCCUCAACCUCCAAUGCAUCCCACCAUAUGAUGAUGCCUGAAGAGCCUUGGUUUUUUG [C53U C104U],0.142
2,GACCAAUCUGCCCUCAGUGCUCGAGAACAUCUUCGGAUGCAGAGUAGGCAGGCUUCGGUGGCGCGAUAGCGCCAACGUCCUCAACCCCCGAUGCAUCCCACCACAUGAUGAUGCCUGAAGAGCCUUGGUUUUUUG [A18U G45U U87C A90G],-2.54
3,GACCAAUCUGCCCUCAGAGCUCGAGAACAUCUUCGGAUGCAGAGGAGCCAGGCUUCGGUGGCGCGAUAGCGCCAACGUCCUCAGGCUCCAAUGCAUCCCACCACAUGAUGAUGCAUGAAGAGCCUUUGUUUUUUG [G48C A84G C85G C115A G127U],-4.98
4,GACCAAUCUGCCCUCAGAGCUCGAGAACAUCUUCGGAUGCAGAGGAGGCAGGCUUAGGUGGCGCGAUAGCGCUAACGUCCUCAACCUCCAAUGCAUCCCACCACAUGAUGAUGCCUGAAGAGCAUUGGUUUUUUG [C56A C73U C124A],1.29
5,GACCAAUCUGCCCUCUGAGCUCGAGAACAUCUUCGGAUGCAUAGGAGGCAGGCUUCGGUGGCGCGAUAGCGCCAACGUCCUCAACCUCCAAUGCAUCCCACCACAUGAUGAUGCCUGAAGAGCCUUGGUUUUUUG [A16U G42U],-2.52
6,GACCAAUCUGCCCUCAGAGCUCGAGAACAUCUUCGGAUGCAGAGGAGGCAGGGUUCGGUGGCGCGAUAGCGCCAACGUCCUCAACCUCCAAUGCAUCCUACCACAUGAUGAUGCCUGAAGAGCCUUGGUUUUUUG [C53G C99U],-3.54
7,GACCAAUCUGCCCUCAGAGCUCGAGAACAUCUUCCAAUGCAGAGGAGGCACGCUUCGGUGGCGCGAUAGCGCCAACGUCCUCAACCUCCAAUGCAUCCCACCACAUGAUGAUGCCUGAAGAGGCUUGGUUUUUUG [G35C G36A G51C C123G],-6.59
8,GACCAAUCUGCCCCCAGAGCUCGAGAACAUCUUCGUAUGCUGAGGAGGCAGGCUUCGGUGGCGCGAUAGCGCCAACGUCCUCAACCUCCAAUGCAUCCCACCACAUGAUGAUGCCUGAAGAGCCUUGGUUUUUUG [U14C G36U A41U],-5.76
9,GACCAAUCUGCCCUCAGAGCUCGAGAACAUCUUCGGAUGCAGAGGAGGCAGGCUUCGGUGACGCGAUAGCGCCAACGUCCACAACCUCCAAUGCAUCCCACCACAUGAUGAUGCCUGAAGAGCCUUGGUUUUUUG [G61A U81A],-0.273
10,GACCAAUCUGCCCUCAGAGCUCGAGAACAUCUUGGGAUGCAGAUGAGGCAGGCUUCGGUGGUGCGAUAGCGCCAACAUCCUCAACCUCCAAUGCAUCCCACCACAUGAUCAUGCCUGAAGAGCCUUGGUUUUUUG [C34G G44U C62U G77A G110C],-6.64
11,GACCAAUCUGCCCUCAGAGCUCGAGAACAUCUUCGGAUGCAGAGGAGGCAGGCUUCGGUGGCGCGAUAGCGCAAACGUCCUCAACCUCCAAUGCAUCCCACCAAAUGGUGAAGCCUGGAGAUCCUUGGUUUUUUG [C73A C104A A108G U112A A118G G122U],-5.56
12,GACCAAUCUGCCCUCAGAGCUCGAGAACAUCUUCGGAUGCAGAGGAGGCUGGCUUCGGUGGCGCGAUAGCGCCAACGUCCUCAACCUCCAAUGCAUCCCACCACAUGAUGAUCCCUGAAGAGCCUUGGUUUUUUG [A50U G113C],-3.07
13,GACCAAUCUGCCCUCAGAGCUCGAGAACAUCUUCGGAUGCAGAGGAGGCAGGCUUCGGUGGCGCGAUAGCGCCAACGUCCUCAACCUACAAUGCAUCCCACAACAUAAUGCUGCCGGAAGAGGCAUGGUUUUUUG [C88A C102A G107A A111C U116G C123G U125A],-6.39
14,GACCAAUCUGCCCUCAGAGCUCGAGAACAUCUUCGGAUGCAGAGGAGGCAGGCUUCGGUGGCGGGAUAGCGCCAACGUGCUCAACCUCCAAUGCAUCCCACCACAUGAUGAUGCCUGAAAAGCCUUGGUUUUUUC [C64G C79G G120A G135C],-5.74
15,GACCAAUCUGCCCUCAGAGCUCGAGAACAUCUUCGGAUGCAGAGGAGGCAGGCUUCGGUGGCGCGAUAGCGCCAACGUCCUCAACCUCCAAUGCAUCCCACCACAAGAUUAUGCCUGAAGAGCCUAGGUAUUUUG [U106A G110U U126A U130A],-3.03
16,GACCAAUCUGCCCUCAGAGCUCGAGAACAUCUUCGGAUGCAGAGGAGGCAGGCUUCGGUGGCGCGAUAGCGCCAACGUCCUCAACCUGCAAUGCAUCCCACCACAUGAUAAUGCCUGAAGAGCCUUGGUUUUUUG [C88G G110A],-1.15
17,GACCAAUCUGCCCUCAGAGCUCGAGAACAUCUUCGGAUGCUGAGGAGGCGGGCUUCGGUGGCGCGAUAGCGCCAACAUCCUCAACCUCCAAUGCAUCCCACCACAUGAUGAUGCCUGAAGAGCCUUGGUUUUUUG [A41U A50G G77A],-0.647
18,GACCAAUCUGCCCUCAGAGCUCGAGAACAUCUUCGGAUGCAGAGGAGGCAGGCUUCGGUGGCGCGACAGCGCCAACGUCCUCAACCUCCAAUGCAUCCCACCACAUGAUUAUGCCUGAAGAGCCUUGGUUUUUUG [U67C G110U],-3.86
19,GACCAAUCUGCCUUCAGAGCUCGAGAACAUCUUCGGAUGCAGAGGAGGCAUUCUUCGGUGGCGCGAUAGCGCCAACGCCCUAAACCUCCAAUGCAUCCCACCACAUGAUGAUGCCUGAAGAGCCUUGGUUUUUUG [C13U G51U G52U U78C C82A],-2.57
20,GACCAAUCUGCCCUCAGAGCUCGAGAACAUCUUCGGAUGCAGAGGAGGCAGGUUUCGGUGGCGCGAUAGCGCCAACGUCCUCAACCUCCAAUGCAUCCCACCACAUGAUGAUGCCUGAAGAACCUUGGUUUUUUG [C53U G122A],-0.631
21,GACCAAUCUACCCUCAGAGCUCGAGAACAUCUUCGGAUGCAGAGGAGGCAGGCUUCGGUGGCGCGAUAGCGCCAACGUCCUCAACCUCCAAUGCAUCCCACCACAUGAUGAUGCCUGAAGAGCCUUGGUCUUUUG [G10A U130C],0.4
